The values below come from article PMC4333373, “Specific and non-specific interactions of ParB with DNA: implications for chromosome segregation”.

For data set [1], the target named is T1, ParB (Spo0J) (Bacillus subtilis 168, UniProt P26497 1-282).
T1 sequence: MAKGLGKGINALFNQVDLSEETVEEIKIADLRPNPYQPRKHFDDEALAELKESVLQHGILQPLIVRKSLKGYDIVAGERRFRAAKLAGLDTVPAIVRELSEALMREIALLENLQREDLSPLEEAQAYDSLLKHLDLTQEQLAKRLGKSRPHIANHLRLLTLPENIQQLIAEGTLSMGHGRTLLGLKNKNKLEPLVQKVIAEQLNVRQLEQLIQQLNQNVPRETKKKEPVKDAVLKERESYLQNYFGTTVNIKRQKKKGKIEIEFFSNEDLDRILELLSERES
Put plainly: SEC-MALS; 9 uM ParB2, 10 uM DNA; 81.6 ± 1.9 kDa, one dimer per DNA; 50 mM Hepes-KOH pH 7.5, 100 mM KCl, 2.5 mM MgCl2, 0.1 mg/ml BSA, 1 mM DTT, 20 nM DNA; EMSA also 2.5% Ficoll, room temperature 30 min then ice 5 min, gel at 4 C. The note with it: protein: recombinant; tags: untagged; chain copies: 2; label: 5'-Hex on forward strand; blunt. For orientation: Size exclusion chromatography separates by hydrodynamic size, large species first.

Data set [2] addresses T1, ParB (Spo0J). Description: SEC-MALS; 80 uM ParB2; 50 mM Hepes-KOH pH 7.5, 100 mM KCl, 2.5 mM MgCl2, 0.1 mg/ml BSA, 1 mM DTT, 20 nM DNA; EMSA also 2.5% Ficoll, room temperature 30 min then ice 5 min, gel at 4 C. The note with it: protein: recombinant; tags: untagged; chain copies: 2; label: 5'-Hex on forward strand; blunt.
In data set [3] the target is T1, ParB (Spo0J). Description: SEC-MALS; 50 mM Hepes-KOH pH 7.5, 100 mM KCl, 2.5 mM MgCl2, 0.1 mg/ml BSA, 1 mM DTT, 20 nM DNA; EMSA also 2.5% Ficoll, room temperature 30 min then ice 5 min, gel at 4 C. The note with it: protein: recombinant, tags: untagged, chain copies: 2, blunt.
The mark [4] stands for this setting: label: 5'-Hex on forward strand.

B1: 24-bp parS (dsDNA)
DNA 1: AGAATGTTCCACGTGAAACAAAGA
DNA 2: TCTTTGTTTCACGTGGAACATTCT
Turning to B1, the binding result with ParB (Spo0J) [1] is “binds”.

B2: 24-bp non-specific (dsDNA)
DNA 1: AGAACGTGCCCAGGGAGACAAAGA
DNA 2: TCTTTGTCTCCCTGGGCACGTTCT
Regarding B2, the binding result in the data set with ParB (Spo0J) [2] is “binds”.

B3: 50-bp parS (dsDNA)
DNA 1: CAGCAGTTGAATCAGAATGTTCCACGTGAAACAAAGAAAAAAGAACCTGT
DNA 2: ACAGGTTCTTTTTTCTTTGTTTCACGTGGAACATTCTGATTCAACTGCTG
For the molecule B3, the binding result in the data set with ParB (Spo0J) [3] (label: 5'-Hex on forward strand (SEC-MALS)) is reported as “binds”.

B4: 100-bp parS (dsDNA)
DNA 1: TGTTCGCCAACTTGAGCAGCTGATTCAGCAGTTGAATCAGAATGTTCCACGTGAAACAAAGAAAAAAGAACCTGTGAAAGATGCGGTTCTAAAAGAACGG
DNA 2: CCGTTCTTTTAGAACCGCATCTTTCACAGGTTCTTTTTTCTTTGTTTCACGTGGAACATTCTGATTCAACTGCTGAATCAGCTGCTCAAGTTGGCGAACA
Take B4: the binding result in the data set with ParB (Spo0J) [3] (setting [4]) was “binds”.

B5: 100-bp non-specific (dsDNA)
DNA 1: TGTTCGCCAACTTGAGCAGCTGATTCAGCAGTTGAATCAGAACGTGCCCAGGGAGACAAAGAAAAAAGAACCTGTGAAAGATGCGGTTCTAAAAGAACGG
DNA 2: CCGTTCTTTTAGAACCGCATCTTTCACAGGTTCTTTTTTCTTTGTCTCCCTGGGCACGTTCTGATTCAACTGCTGAATCAGCTGCTCAAGTTGGCGAACA
As for B5, in the data set with ParB (Spo0J) [3] (setting [4]), the binding result was “binds”.
